Experimental data taken from IntAct's records for PubMed 25517094.

B1: Muscarinic acetylcholine receptor M4 (Homo sapiens), P08173 (parent)
chain: MANFTPVNGSSGNQSVRLVTSSSHNRYETVEMVFIATVTGSLSLVTVVGNILVMLSIKVNRQLQTVNNYFLFSLACADLIIGAFSMNLYTVYIIKGYWPLGAVVCDLWLALDYVVSNASVMNLLIISFDRYFCVTKPLTYPARRTTKMAGLMIAAAWVLSFVLWAPAILFWQFVVGKRTVPDNQCFIQFLSNPAVTFGTAIAAFYLPVVIMTVLYIHISLASRSRVHKHRPEGPKEKKAKTLAFLKSPLMKQSVKKPPPGEAAREELRNGKLEEAPPPALPPPPRPVADKDTSNESSSGSATQNTKERPATELSTTEATTPAMPAPPLQPRALNPASRWSKIQIVTKQTGNECVTAIEIVPATPAGMRPAANVARKFASIARNQVRKKRQMAARERKVTRTIFAILLAFILTWTPYNVMVLVNTFCQSCIPDTVWSIGYWLCYVNSTINPACYALCNATFKKTFRHLLLCQYRNIGTAR
B2: "D(3) dopamine receptor" (Homo sapiens), P35462-1 (parent)
chain: MASLSQLSGHLNYTCGAENSTGASQARPHAYYALSYCALILAIVFGNGLVCMAVLKERALQTTTNYLVVSLAVADLLVATLVMPWVVYLEVTGGVWNFSRICCDVFVTLDVMMCTASILNLCAISIDRYTAVVMPVHYQHGTGQSSCRRVALMITAVWVLAFAVSCPLLFGFNTTGDPTVCSISNPDFVIYSSVVSFYLPFGVTVLVYARIYVVLKQRRRKRILTRQNSQCNSVRPGFPQQTLSPDPAHLELKRYYSICQDTALGGPGFQERGGELKREEKTRNSLSPTIAPKLSLEVRKLSNGRLSTSLKLGPLQPRGVPLREKKATQMVAIVLGAFIVCWLPFFLTHVLNTHCQTCHVSPELYSATTWLGYVNSALNPVIYTTFNIEFRKAFLKILSC
B3: "D(4) dopamine receptor" (Mus musculus), P51436 (parent)
chain: MGNSSATEDGGLLAGRGPESLGTGAGLGGAGAAALVGGVLLIGLVLAGNSLVCVSVASERTLQTPTNYFIVSLAAADLLLAVLVLPLFVYSEVQGGVWLLSPRLCDTLMAMDVMLCTASIFNLCAISVDRFVAVTVPLRYNQQGQCQLLLIAATWLLSAAVASPVVCGLNDVPGRDPAVCCLENRDYVVYSSVCSFFLPCPLMLLLYWATFRGLRRWEAARHTKLHSRAPRRPSGPGPPVSDPTQGPFFPDCPPPLPSLRTSPSDSSRPESELSQRPCSPGCLLADAALPQPPEPSSRRRRGAKITGRERKAMRVLPVVVGAFLVCWTPFFVVHITRALCPACFVSPRLVSAVTWLGYVNSALNPIIYTIFNAEFRSVFRKTLRLRC

Variants of: B1
Conditions: with SH3GL1, Q99961-1
Target sequence in this assay (Q99961 whole entry): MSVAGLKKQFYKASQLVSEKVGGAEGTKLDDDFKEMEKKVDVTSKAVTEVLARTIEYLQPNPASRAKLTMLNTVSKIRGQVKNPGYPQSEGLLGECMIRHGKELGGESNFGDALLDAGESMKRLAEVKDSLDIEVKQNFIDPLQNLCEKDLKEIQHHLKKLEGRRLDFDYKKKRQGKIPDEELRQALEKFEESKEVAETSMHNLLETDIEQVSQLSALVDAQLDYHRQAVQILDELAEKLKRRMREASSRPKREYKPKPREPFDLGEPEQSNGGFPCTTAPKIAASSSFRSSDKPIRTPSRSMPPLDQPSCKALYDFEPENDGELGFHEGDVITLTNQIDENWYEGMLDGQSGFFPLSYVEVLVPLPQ

| effect of a mutation on the interaction | Variant |
| --- | --- |
| decreasing interaction strength | MANFTPVNGSSGNQSVRLVTSSSHNRYETVEMVFIATVTGSLSLVTVVGNILVMLSIKVNRQLQTVNNYFLFSLACADLIIGAFSMNLYTVYIIKGYWPLGAVVCDLWLALDYVVSNASVMNLLIISFDRYFCVTKPLTYPARRTTKMAGLMIAAAWVLSFVLWAPAILFWQFVVGKRTVPDNQCFIQFLSNPAVTFGTAIAAFYLPVVIMTVLYIHISLASRSRVHKHRPEGPKEKKAKTLAFLKSPLMKQSVKKPPPGEAAREELRNGKLEEAPPPALPPPPRPVADKDTSNESSSGSATQNTKERPATELSTTEATTPAMPAPPLQERALNPASRWSKIQIVTKQTGNECVTAIEIVPATPAGMRPAANVARKFASIARNQVRKKRQMAARERKVTRTIFAILLAFILTWTPYNVMVLVNTFCQSCIPDTVWSIGYWLCYVNSTINPACYALCNATFKKTFRHLLLCQYRNIGTAR [P330E] |
| decreasing interaction strength | MANFTPVNGSSGNQSVRLVTSSSHNRYETVEMVFIATVTGSLSLVTVVGNILVMLSIKVNRQLQTVNNYFLFSLACADLIIGAFSMNLYTVYIIKGYWPLGAVVCDLWLALDYVVSNASVMNLLIISFDRYFCVTKPLTYPARRTTKMAGLMIAAAWVLSFVLWAPAILFWQFVVGKRTVPDNQCFIQFLSNPAVTFGTAIAAFYLPVVIMTVLYIHISLASRSRVHKHRPEGPKEKKAKTLAFLKSPLMKQSVEEPPPGEAAREELRNGKLEEAPPPALPPPPRPVADKDTSNESSSGSATQNTKERPATELSTTEATTPAMPAPPLQPRALNPASRWSKIQIVTKQTGNECVTAIEIVPATPAGMRPAANVARKFASIARNQVRKKRQMAARERKVTRTIFAILLAFILTWTPYNVMVLVNTFCQSCIPDTVWSIGYWLCYVNSTINPACYALCNATFKKTFRHLLLCQYRNIGTAR [K255E;K256E] |
| decreasing interaction strength | MANFTPVNGSSGNQSVRLVTSSSHNRYETVEMVFIATVTGSLSLVTVVGNILVMLSIKVNRQLQTVNNYFLFSLACADLIIGAFSMNLYTVYIIKGYWPLGAVVCDLWLALDYVVSNASVMNLLIISFDRYFCVTKPLTYPARRTTKMAGLMIAAAWVLSFVLWAPAILFWQFVVGKRTVPDNQCFIQFLSNPAVTFGTAIAAFYLPVVIMTVLYIHISLASRSRVHKHEPEGPKEKKAKTLAFLKSPLMKQSVKKPPPGEAAREELRNGKLEEAPPPALPPPPRPVADKDTSNESSSGSATQNTKERPATELSTTEATTPAMPAPPLQPRALNPASRWSKIQIVTKQTGNECVTAIEIVPATPAGMRPAANVARKFASIARNQVRKKRQMAARERKVTRTIFAILLAFILTWTPYNVMVLVNTFCQSCIPDTVWSIGYWLCYVNSTINPACYALCNATFKKTFRHLLLCQYRNIGTAR [R230E] |

Variants of: B2
Conditions: with SH3GL1, Q99961-1
Target sequence in this assay (Q99961 whole entry): as the sequence (Q99961 whole entry) above

| effect of a mutation on the interaction | Variant |
| --- | --- |
| decreasing interaction strength | MASLSQLSGHLNYTCGAENSTGASQARPHAYYALSYCALILAIVFGNGLVCMAVLKERALQTTTNYLVVSLAVADLLVATLVMPWVVYLEVTGGVWNFSRICCDVFVTLDVMMCTASILNLCAISIDRYTAVVMPVHYQHGTGQSSCRRVALMITAVWVLAFAVSCPLLFGFNTTGDPTVCSISNPDFVIYSSVVSFYLPFGVTVLVYARIYVVLKQRRRKRILTRQNSQCNSVRPGFPQQTLSPDPAHLELKRYYSICQDTALGGPGFQERGGELKREEKTRNSLSPTIAPKLSLEVRKLSNGRLSTSLKLGPLQPEGVPLREKKATQMVAIVLGAFIVCWLPFFLTHVLNTHCQTCHVSPELYSATTWLGYVNSALNPVIYTTFNIEFRKAFLKILSC [R318E] |
| decreasing interaction strength | MASLSQLSGHLNYTCGAENSTGASQARPHAYYALSYCALILAIVFGNGLVCMAVLKERALQTTTNYLVVSLAVADLLVATLVMPWVVYLEVTGGVWNFSRICCDVFVTLDVMMCTASILNLCAISIDRYTAVVMPVHYQHGTGQSSCRRVALMITAVWVLAFAVSCPLLFGFNTTGDPTVCSISNPDFVIYSSVVSFYLPFGVTVLVYARIYVVLKQRRRKRILTRQNSQCNSVRPGFPQQTLSPDPAHLELKRYYSICQDTALGGPGFQERGGELKREEKTRNSLSPTIAPELSLEVRKLSNGRLSTSLKLGPLQPRGVPLREKKATQMVAIVLGAFIVCWLPFFLTHVLNTHCQTCHVSPELYSATTWLGYVNSALNPVIYTTFNIEFRKAFLKILSC [K293E] |

Variants of: B3
Conditions: with SH3GL1, Q99961-1
Target sequence in this assay (Q99961 whole entry): as the sequence (Q99961 whole entry) above

| effect of a mutation on the interaction | Variant |
| --- | --- |
| decreasing interaction strength | MGNSSATEDGGLLAGRGPESLGTGAGLGGAGAAALVGGVLLIGLVLAGNSLVCVSVASERTLQTPTNYFIVSLAAADLLLAVLVLPLFVYSEVQGGVWLLSPRLCDTLMAMDVMLCTASIFNLCAISVDRFVAVTVPLRYNQQGQCQLLLIAATWLLSAAVASPVVCGLNDVPGRDPAVCCLENRDYVVYSSVCSFFLPCPLMLLLYWATFRGLRRWEAARHTKLHSRAARRASGPGPPVSDPTQGPFFPDCPPPLPSLRTSPSDSSRPESELSQRPCSPGCLLADAALPQPPEPSSRRRRGAKITGRERKAMRVLPVVVGAFLVCWTPFFVVHITRALCPACFVSPRLVSAVTWLGYVNSALNPIIYTIFNAEFRSVFRKTLRLRC [P230A;P233A] |
| disrupting interaction strength | MGNSSATEDGGLLAGRGPESLGTGAGLGGAGAAALVGGVLLIGLVLAGNSLVCVSVASERTLQTPTNYFIVSLAAADLLLAVLVLPLFVYSEVQGGVWLLSPRLCDTLMAMDVMLCTASIFNLCAISVDRFVAVTVPLRYNQQGQCQLLLIAATWLLSAAVASPVVCGLNDVPGRDPAVCCLENRDYVVYSSVCSFFLPCPLMLLLYWATFRGLRRWEAARHTKLHSRAPDEPSGPGPPVSDPTQGPFFPDCPPPLPSLRTSPSDSSRPESELSQRPCSPGCLLADAALPQPPEPSSRRRRGAKITGRERKAMRVLPVVVGAFLVCWTPFFVVHITRALCPACFVSPRLVSAVTWLGYVNSALNPIIYTIFNAEFRSVFRKTLRLRC [R231D;R232E] |
